B1: MLL5 (parent)
chain: TYLCERCQPRNLDKERAVLLQRRK

Variants of: B1
Assay: protein stability index of a GFP-peptide fusion (GPS, HEK-293T) (PSI 1-6); higher = more stable
Conditions: c terminus: a fixed tail appended
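Further: lentivirally expressed fusions sorted by FACS into six bins by GFP to DsRed ratio, PSI derived from sequencing read proportions per bin multiplied by bin number.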

Variant	protein stability index
TYLCERCQPRNLDKPRAVLLQRRK [E15P]	2.12
TYLCERCQPRNLDKKRAVLLQRRK [E15K]	3.21
TYLCERCQPRNLDKTRAVLLQRRK [E15T]	2.32
TYLCERCQPRNLDKRRAVLLQRRK [E15R]	2.34
TYLCERCQPRNLDKCRAVLLQRRK [E15C]	1.45
TYLCERCQPRNLDKIRAVLLQRRK [E15I]	2.2
TYLCERCQPRNLDKGRAVLLQRRK [E15G]	2.71
TYLCERCQPRNLDKQRAVLLQRRK [E15Q]	2.24
TYLCERCQPRNLDKNRAVLLQRRK [E15N]	1.6
TYLCERCQPRNLDKLRAVLLQRRK [E15L]	2.05
TYLCERCQPRNLDKSRAVLLQRRK [E15S]	2.46
TYLCERCQPRNLDKWRAVLLQRRK [E15W]	1.94
TYLCERCQPRNLDKDRAVLLQRRK [E15D]	2.42
TYLCERCQPRNLDKFRAVLLQRRK [E15F]	2.14
TYLCERCQPRNLDKHRAVLLQRRK [E15H]	2.71
TYLCERCQPRNLDHERAVLLQRRK [K14H]	1.74
TYLCERCQPRNLDSERAVLLQRRK [K14S]	2.51
TYLCERCQPRNLDPERAVLLQRRK [K14P]	1.96
TYLCERCQPRNLDTERAVLLQRRK [K14T]	3.29
TYLCERCQPRNLDWERAVLLQRRK [K14W]	2.89
TYLCERCQPRNLDAERAVLLQRRK [K14A]	2.29
TYLCERCQPRNLDVERAVLLQRRK [K14V]	3.34
TYLCERCQPRNLDYERAVLLQRRK [K14Y]	2.64
TYLCERCQPRNLDIERAVLLQRRK [K14I]	1.87

Variant	protein stability index
TYLCERCQPRNLDCERAVLLQRRK [K14C]	1.93
TYLCERCQPRNLDFERAVLLQRRK [K14F]	2.34
TYLCERCQPRNLDGERAVLLQRRK [K14G]	1.77
TYLCERCQPRNLDMERAVLLQRRK [K14M]	3.36
TYLCERCQPRNLDDERAVLLQRRK [K14D]	1.98
TYLCERCQPRNLDQERAVLLQRRK [K14Q]	2.23
TYLCERCQPRNLDRERAVLLQRRK [K14R]	2.19
TYLCERCQPRNLDNERAVLLQRRK [K14N]	2.29
TYLCERCQPRNLDLERAVLLQRRK [K14L]	3.62
TYLCERCQPRNLDKERAVLWQRRK [L20W]	2.31
TYLCERCQPRNLDKERAVLGQRRK [L20G]	2.52
TYLCERCQPRNLDKERAVLDQRRK [L20D]	3.55
TYLCERCQPRNLDKERAVLEQRRK [L20E]	2.7
TYLCERCQPRNLDKERAVLPQRRK [L20P]	2.08
TYLCERCQPRNLDKERAVLSQRRK [L20S]	1.9
TYLCERCQPRNLDKERAVLFQRRK [L20F]	2.3
TYLCERCQPRNLDKERAVLYQRRK [L20Y]	1.76
TYLCERCQPRNLDKERAVLNQRRK [L20N]	2.68
TYLCERCQPRNLDKERAVLHQRRK [L20H]	2.23
TYLCERCQPRNLDKERAVLTQRRK [L20T]	1.58
TYLCERCQPRNLDKERAVLCQRRK [L20C]	2.3
TYLCERCQPRNLDKERAVLMQRRK [L20M]	2.4
TYLCERCQPRNLDKERAVLAQRRK [L20A]	2.37
TYLCERCQPCNLDKERAVLLQRRK [R10C]	2.54

Variant	protein stability index
TYLCERCQPTNLDKERAVLLQRRK [R10T]	2.29
TYLCERCQPVNLDKERAVLLQRRK [R10V]	2.17
TYLCERCQPQNLDKERAVLLQRRK [R10Q]	2.48
TYLCERCQPANLDKERAVLLQRRK [R10A]	2.28
TYLCERCQPYNLDKERAVLLQRRK [R10Y]	2.04
TYLCERCQPINLDKERAVLLQRRK [R10I]	2.25
TYLCERCQPENLDKERAVLLQRRK [R10E]	1.99
TYLCERCQPDNLDKERAVLLQRRK [R10D]	2.25
TYLCERCQPNNLDKERAVLLQRRK [R10N]	2.84
TYLCERCQPHNLDKERAVLLQRRK [R10H]	1.72
TYLCERCQPSNLDKERAVLLQRRK [R10S]	2.44
TYLCERCQPFNLDKERAVLLQRRK [R10F]	2.28
TYLCERCQPKNLDKERAVLLQRRK [R10K]	1.74
TYLCERCQPPNLDKERAVLLQRRK [R10P]	2.67
TYLCERCQPWNLDKERAVLLQRRK [R10W]	1.66
TYLCERCQPLNLDKERAVLLQRRK [R10L]	1.83
TYLCERCQPGNLDKERAVLLQRRK [R10G]	3.56
TYLCERCQPMNLDKERAVLLQRRK [R10M]	2.25
TYLCERCQVRNLDKERAVLLQRRK [P9V]	2.36
TYLCERCQYRNLDKERAVLLQRRK [P9Y]	3.52
TYLCERCQPRHLDKERAVLLQRRK [N11H]	2.82
TYLCERCQPRFLDKERAVLLQRRK [N11F]	1.9
TYLCERCQPRDLDKERAVLLQRRK [N11D]	2.02
TYLCERCQPRMLDKERAVLLQRRK [N11M]	2.04

Variant	protein stability index
TYLCERCQPRCLDKERAVLLQRRK [N11C]	2.11
TYLCERCQPRGLDKERAVLLQRRK [N11G]	2.42
TYLCERCQPRLLDKERAVLLQRRK [N11L]	2.12
TYLCERCQPRQLDKERAVLLQRRK [N11Q]	2.41
TYLCERCQPRELDKERAVLLQRRK [N11E]	1.52
TYLCERCQPRSLDKERAVLLQRRK [N11S]	2.32
TYLCERCQPRILDKERAVLLQRRK [N11I]	1.68
TYLCERCQPRALDKERAVLLQRRK [N11A]	2.05
TYLCERCQPRPLDKERAVLLQRRK [N11P]	2.18
TYLCERCQPRWLDKERAVLLQRRK [N11W]	2.09
TYLCERCQPRRLDKERAVLLQRRK [N11R]	2.15
TYLCERCQPRTLDKERAVLLQRRK [N11T]	3.08
TYLCERCQPRKLDKERAVLLQRRK [N11K]	2.05
TYLCERCQPRYLDKERAVLLQRRK [N11Y]	1.43
TYLCERCQPRNLAKERAVLLQRRK [D13A]	2.7
TYLCERCQPRNLQKERAVLLQRRK [D13Q]	2.53
TYLCERCQPRNLKKERAVLLQRRK [D13K]	2.71
TYLCERCQPRNLVKERAVLLQRRK [D13V]	1.88
TYLCERCQPRNLGKERAVLLQRRK [D13G]	2.71
TYLCERCQPRNLSKERAVLLQRRK [D13S]	2.76
TYLCERCQPRNLIKERAVLLQRRK [D13I]	2.23
TYLCERCQPRNLMKERAVLLQRRK [D13M]	2

— the supplement of paper PMC10567573
